What all share (format): cell-based, avian influenza A (H5N1)
Assay [1] deals with humanized H5N1 influenza virus strain Vietnam/1203/2004H.
The subject of assay [2] is bird H5N1 influenza virus strain Gull/PA/4175/83.
Assay [3] concerns humanized H5N1 influenza virus strain Vietnam/1203/2004H. The source holds these as a separate data set.
The test system of assay [4] is humanized H5N1 influenza virus strain Hong Kong/213/2003.
Assay [5] shares this test system. The source holds these as a separate data set.
The subject of assay [6] is humanized H5N1 influenza virus strain Hong Kong/491/1997.
The test system is the same in assay [7]. The source holds these as a separate data set.
In assay [8] the test system is humanized H5N1 influenza virus strain Vietnam/1203/2004H. This is another data set of the same source.
Assay [9] deals with bird H5N1 influenza virus strain Gull/PA/4175/83. This is another data set of the same source.
In assay [10] the test system is all tested strains of H5N1.
Assay [11] concerns bird H5N1 influenza virus strain Duck/MN/1525/81.
For assay [12] the test system is unchanged. This is another data set of the same source.

These results are taken from patent US20100240578A1 (priority 2006, published 2010).

Like-named read-outs stand apart in the source and are kept apart here.

B1: Cyanovirin-N (protein, listed as Nostoc ellipsosporum)
chain: LGKFSQTCYNSAIQGSVLTSTCERTNGGYNTSSIDLNSVIENVDGSLKWQPSNFIETCRNTQLAGSSELAAECKTRAQQFVSTKINLDDHIANIDGTLKYE
As to B1, the EC90 came out at 0.2 µg/mL in assay [1], 0.1 µg/mL in [7], 0.1 µg/mL in [9] and 0.7 µg/mL in assay [11]. For the same molecule, the 50% effective concentration (EC50) in assay [2] was 0.1 µg/mL; in assay [6], below 0.0032 µg/mL; in assay [8] it was 0.03 µg/mL; in [12], 0.5 µg/mL. Besides, the half-inhibitory concentration (IC50) is 3 µg/mL in assay [2]; above 1 µg/mL in [4]; above 1 µg/mL in assay [5]; 3 µg/mL in assay [6]; above 1 µg/mL in [8]; 2 µg/mL in [12]. Further, the “activity against the strain (in words)” value in assay [2] is on record as “moderately active”; in [3], “moderately active”; in [5], “highly active”; in assay [6], “moderately active”. Moreover, the “activity against all tested strains of H5N1 (in words)” value in assay [10] was “active”.

For orientation: EC90 means the concentration at which the effect reaches the 90% level. Low readings indicate an effect from little substance, high ones a need for much substance. One may read the EC50 as the concentration needed to bring the measured effect to its halfway point. A high value points to a need for much substance. In general, IC50 refers to the point on the concentration scale where inhibition reaches its midpoint.
